The nanobody polyreactivity screen of Harvey et al. (2022)

Assay: yeast display, Sf9 membrane polyspecificity reagent, FACS + sequencing; frameworks hold sequencing errors
Method in brief: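 Nanobodies from a synthetic yeast display library (Saccharomyces cerevisiae BJ5465), induced 36–48 hours with galactose, were stained 1 hour at 4 °C with 10% biotinylated, detergent-solubilized Sf9 membrane reagent, enriched on streptavidin microbeads, then FACS-sorted. Anti-HA (expression) and streptavidin (reagent binding) fluorescence set low and high (top ~1%) gates. Polyreactivity labels come from the gate of origin. Genes were colony-PCR amplified, MiSeq 2 × 250 sequenced and filtered by CDR length.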

Sequence | polyreactivity (PSR sort gate)
QVQLVESGGGLVQAGGSLRLSCAASGRIFYKYVMGWYRQAPGKERELVAAINRSGGTTYYADSVKGRFTISRDNAKNTVYLQMNSLKPEDTAVYYCNATLPDYWPYYYYQGGDDYWGQGTQVTVSS | low polyreactivity
QVQLVESGGGLVQAGGSLRLTCAASGSTYLNYAMGWYRQAPGKERELVAAITSGGRTYYADSVKGRFTISRDNAKNTVYLQMNSLKPEDTAVYYCAKVSYRYGLYDYWGQGTQVTVSS | high polyreactivity
QVQLVESGGGLVQAGGSLRLSCAASGITIYKNAMGWYRQAPGKERELFAAITRGGSTYYADSVKGRFTISRDNAKNTVYLQMNCLKPEDTAVYYCNKVYHWQTPGFGYGYWGQGTQVTVST | high polyreactivity
QVQLVESGGGLVQAGGSLRLSCAASGSIFYRYAMGWYRQAPGKERELVAGISWTGGTYYADSVKGRFTISRDNAKNTVYLQMNSLKPEDTAVYYCAATIWIAYRGWYSDYNYWGQGTQVTVSS | low polyreactivity
QVQLVESGGGLVQAGGSLRLSCAASGFIFGAYAMGWYRQAPGKERELVAALSSRGGNTYYADSVKGRFTISRDNAKNTVYLQMNSLKPEDTAVYYCNAVGYARYLYVPPPYDYWGQGTQVTVSS | high polyreactivity
QDQLVESGGGLVQAGGSLRLSCAASGRIFGWYAMGWYRQAPGKEREFVAAISRGGSTNYADSVKGRFTISRDNAKNTVYLQMNSLKAEDTAVYYCNARKRGSRLRREFDYWGQGTQVTVST | high polyreactivity
QVQLVESGAGLVQAGGSLRLSCAASGSTFRSNAMGWYRPAPGKEREFVASITSRGGPTYYADSVKGRFTISRDNAKNTVYLQMKSLKPEDTAVYYCASARSYLTYFYHYDYWGQGTQVTVSS | low polyreactivity
QVQLVESGGGLVQAGGSLRLSCAASGLTFRGYAMGWYRQAPGKERELVAAITSSAGRTYYADSVKGRFTISRDNAKNTVYLQLNSLKQEDTAVYYCAAAHSYTTRWGYYKFNYWGQGTKVTVSS | high polyreactivity
QVQLVESGGCLVQAGGSLRLSCASSGSTFHSYAMGWYRQAPGKERELVAAISRSGGSTYYADSVKGRFTISRDNAKNTVYLQMNSLKPEDTAVYYCAARDLQFSGYYYWGQGTQVTVSS | high polyreactivity
QVQLVESGGGLVQAGGSLRLSCAASGRIFRFYTMAWYRQAPGKERELVAAITQRGGRTYYADSVKGRFTISRDNAKNTVYLLMNSLKPEDTAVFYCAATTTVAEYDYWGQGTQVTVSS | high polyreactivity
QVQLVESGGGLLQAGGSLRLSCAASGSILGPYAMGWYRQAPGKERELVAGIDATDGSTYYADSVKGRFTISRDNAKNTVYLQMNSLKPEDTAVYYCAAAPYAYYGEYNYWGQGTQVTVSS | low polyreactivity
QVQLLESGGGLVQARGSLRISCAASGLTFFFYAMGWYRQAPGKERELVAAISFSGGSTYADSVKGRFTISRDNAKNTVYLQMNSLKPEDTAVYYCNAPPQFATFTYANWRQGTQVTVSS | low polyreactivity
QVQLVDSGGALVQAGGSLRLSCAASGFIFRDNAMGWYRQAPGKESELVAAISSRGGSTYYADSVKGRFTISRDYAKNSVYLQMNRLKPEDTAVYYCAIRPYKSRVQMDCWGQGTQVTVSS | high polyreactivity
QVQLVESGGGLVQAGGSLRLSCAASGFIFWNYAMGWNRQAPGKERDLVAAISSGGTITKYADSVKGRFTISRDKAKNTVYLQMNSLKPEDTAVYYCNAVVRVRFRKNDYWGQGTQVTVSS | high polyreactivity
QVQLVESGGGLVQAGGSLRLICAASGFTFYLYTMGWYRQAPGKERELVAAISWRGGGTYYADSVKGRFTISRDNAKNTVYLQMNSLKPEDTEVYYCAAYWRRRLVYYYWGQGTQVTVSS | high polyreactivity
QFQLVESGGGLVQAGGSLRLSCAATGSIFHYYAMGWYRHAPGKERELVAAINSSGGSRSYYADSVKGRFTISRDNAKNTVFLQMNSLKPVDTAVYYCAAEYRVVWRAYDYWGKGTQVTVSS | low polyreactivity
QVQHVESGGGLVQAGGSLRLSCAASGLIYAYYAMGWYRHAPGKERELVAAISRSGVSTYYADSVKGRFTISRDNAKNTVYLQMNSVKPEDTAVYYCAARWRSGFTSGDYWGQGTQVTVSS | low polyreactivity
QVQLVESGGGLVQAGGSLRLSCAASGRIFRRYAMGWYRQAHGKERELVAAITSGGRTYYADSVKGRFTISRDNAKNTVYLQMNSLKPEDTAVYYCAAKWTVGELDYWGQGTQVTVSS | high polyreactivity
QVQLVESGGGLVQAGGSLRLSCAASGRTIRGNARGWYIQAPGKERELVAVNTASGSTTYADSVKGRFTISRDNAKNTVYLQMNSLKSEDTAVYYCAKYVPWYTLWLGGTDRDYWGQGTQVTVSS | low polyreactivity
QVHLVESGGGLVQAGGSLRLSCAASGRIFGYYAMGWYRQAPGKVRELVAAIRRSGGSTYADSVKGRFTISRDNAKNTVYLQMNSLKPEDTAVYDCAAGHYWTSPYRVLSYSYWGQGTQVTVSS | high polyreactivity
QVQLVESGGGLVQAGGSLRLSCAASGSIFHYNAMGWYRQAPGKERELVAAISTSGGSTYYADSVKGRFTISRDNAKNTVYLQMNSLKPEDTAVYYCNAYHRYRRLEMYYWGQGTQVTVSS | high polyreactivity
QVQLVESGGGLVQAGGSLLLSCAASGSIFQQYAMGGSRQAPGKERDLVAAISWGDGSTYYADSVKGRFTISRDNAKNTVYLQMNSLKPEDTAVYYCNAYASAPLWSLEDDYWGKGTQVTVSS | low polyreactivity

Sequence | polyreactivity (PSR sort gate)
QVQLVESGGGLVQAGGSLRLSCAASGIIFGRYAMGWYRHAPGKERELVAAISTSGCSTYYADSVKGRFTISRDNAKTTVYLQMNSLKPEDTAVYYCAARHREAQRRYDYWGQGTQVTVSS | high polyreactivity
QVQLVESGGGLVQAGGSLRLSCAASGSTLNSYVMGWYRQAPGKERELVATIRSGSSTNYADSVKGRFTISRDNAKNTVYLQMNSLKPEDTAVYYCAADAYSLCYDSWGQGTQVTVSS | low polyreactivity
QVQLVESGGGLVQAGGSLRLSCAASGSTFYRYDMGWYRQAPGKERELVAAITSVGSTKYADSVKGRFTISRDNAKNTVYLQMNSLKPEDNAVYYCNVDYIDWGQWYTNYPLSGYDYWGQGTQVTVSS | low polyreactivity
QVQLVESGGGLVQPGGRLRLSCAASGFTFHDYAMGWYRPAPGKERELVAAITKSGGRTYYADSVKGRFTISRDNAKNTVYLQMNSLKPEDTAVYFCAAASYRSQYDYYYWGQGTQVTVSS | high polyreactivity
QVQLVESGGVLVKAGGSLRLSCAASGRIFGYYAMGWYIQAPGKERELFAAITYSSGRTYYADSVKGRFTISRDNAKNTFYLQMNSLKPEDTAVYYCAARYHYYLSPATYYYWGQGTQVTVSS | high polyreactivity
QVQLVESGGGLVQAGGSLRLSCAASGFTFLWNAMGWYRQAPGKERELVAAINGNSGNTYYADSVKGRFTISRDNAKNTVYLQMNSLKPEDTAVYYCARRGGVRGYYGGRRSKMDYWGQGTQVTVSS | low polyreactivity
QVQLVESGGGLVQAGGSLRLSCAASGRILSVYVMGWYRQAPGKERELVAAISRNGGRTYYADSVKGRFTISRDNAKNTVYLQMNSLKPEDTAVYYCAKSQRGTVYSYYYWGQGTQVTVSS | high polyreactivity
QVQLVESGGGLVQAGGSLRLSCAASGRNFALNAMGWYRQAPGKERELLATIRWRGGSTYYADSVKGRFTISRDNAKKTVYLQMNSLKPEDTAVYYCATGPRPYPYDYCGQGTQVTVSS | high polyreactivity
QVQLVESGGGLVQAGGSLRLSCAASGSIFGLYAMGWYRQAPGKERELVAAINQSGGSTSYADSVKGRFTISRDTAKNTVYLQMNSLKPEDTAVYYCAVAIVTSGPFPRDYWGQGTQVTVSS | low polyreactivity
QVQLVESGGVLVQAGGSLRLTCAASGSILYLNAMGWYRQAPGKERELVAAITWSGGSTSYADSVKGRFTISRDNAKYTVSLQMNSLKPEDTAVYYCASGRRGYGGVYYAGGYWGQGTQVTVSS | low polyreactivity
QVQLVESGGGLVQAGGSLRLSCAASGSTFARYAMGWYRQAPGKERELVASITTGGRTYYADSVKGRFTITRDNAKYTVYLQMNSLKPEDTPVYFCNVLRYRGYDYWGQGTQVTVSS | high polyreactivity
QVQLVESGGGLVQAGGSLRLSCAASGRTFRYYAMAWYRQAPGKERELVAAIRSGGITNYADSVKGRFTISLDNAKYTVYLQMNRLKPEDTAVYYCAQAIRGHYWGQGTQVTVSS | high polyreactivity
QVKLVESGGGLVQAGGSLRLSCAASGFIFKANAMGWYRQAPGKETELVAAITWRDGNTNYADSVKGRFTISRDNAKNTVYLQMNSLKPEDTAGYYCAVRLLADDGYPAVVGDDYWGQGTQVTVSS | low polyreactivity
QVQLVQSGGGLVQAGGSLRLSCAASGFTFIRYAMGWYRQAPGKERELVAAIRGTGTSTYYADSVKGRFTISRDIAKNTVYLQMNSLKPEDTAVYYCNAGTYYRSYGYDYWGQGTQVTVSS | low polyreactivity
QVQLVESGGGLVQAGGSLRLSCAASGNIFPAYAMGWYRPAPGKERELVATISRRGGGTYYADSVKGRFTISRDNAKNTVYLQMNSLKPEDTAVYYCNGAGWTSAYDYWGQGTQVTVSS | low polyreactivity
QVQIVESGGGLFQAGGSIRLSCSASGFTFAFYSMGWYRQAPGKERQLVAAISWSGGSTYYADSVKWRFTISRDNAKNTVYLQMNSLKPEDNAVYYCNTDRGPIGDHYDYWGQGTQVTVSS | high polyreactivity
QVQLVESGGGLVQAGGSLRLSCAASGFTFGSYAMGWYRQATGKERELVAVITRSGRTNYADSVKGRFTITRDNAKNTVFLQMNSMKPEDTAVYYCNADDVDDEVSPDLTEMDNWGLGTQVTVSS | low polyreactivity
QVQLVESGGGLVQAGGSLRLSCAASGSTFGRNAMGWYRQAPGKERELVAGITRRGGSTYYADSVKGRFTISRDNAKNTVYLQMNSLKPEDTAVYYCNTRGQSSSGIYDYWGQGTQVTVSS | high polyreactivity
QVQLVESGGGLVQAGGSLRLSCAASGMIFGYYAMGWYRQAPAKERELVAAITGSGGRTYYADSVKGRFTISRDNAKNTVYLQMNSLKTEDTAVYYCADRGVNGMGYWGQGTHVTVSS | high polyreactivity
QVQLLESGGGLVQAGGSLRISCAASGRTFTYNAMGWYRQAPGKERELVAAITASGGSTYYADSVKGRFTISRDNAKNTVYLQMNSLKPEDTAVYYCAARWSSPYVKLGYWGQGTQVTVSS | high polyreactivity
QVQLVESGGGLVQAGGSLRLSCAASGIIFVKYTMGWYRQAPGKERELVAAITRGGSTYYADSVKGRFTISRDNAKNTVYLQMNSLKPEDTAVYYCAAAWYQYFVPGYRGYTYYYWGQGTQVTVSS | high polyreactivity
